Values quoted from earlier work, collected in patent US20110020368A1, “TREATING CANCER BY DOWN-REGULATING FRIZZLED-4 AND/OR FRIZZLED-1” (priority 2008, published 2011).

Test system: breast tumor cell lines
Settings: interference with autocrine WNT pathway activation

B1: sFRP1: extracellular inhibitor of WNT signaling, which competes with FZD receptors for ligand binding (protein, UniProt Q8N474 32-314, looked up)
Secreted frizzled-related …: SEYDYVSFQSDIGPYQSGRFYTKPPQCVDIPADLRLCHNVGYKKMVLPNLLEHETMAEVKQQASSWVPLLNKNCHAGTQVFLCSLFAPVCLDRPIYPCRWLCEAVRDSCEPVMQFFGFYWPEMLKCDKFPEGDVCIAMTPPNATEASKPQGTTVCPPCDNELKSEAIIEHLCASEFALRMKIKEVKKENGDKKIVPKKKKPLKLGPIKKKDLKKLVLYLKNGADCPCHQLDNLSHHFLIMGRKVKSQYLLTAIHKWDKKNKEFKNFMKKMKNHECPTFQSVFK
In the case of B1, the “Effect on proliferation of breast tumor cell lines” value is given as “blocks proliferation”.
